Measured values published in the RNAGym collection of RNA variant scans (doi:10.1073/pnas.2313332121).

B1: TPR t1 (parent)
chain: GACCAAUCUGCCCUCAGAGCUCGAGAACAUCUUCGGAUGCAGAGGAGGCAGGCUUCGGUGGCGCGAUAGCGCCAACGUCCUCAACCUCCAAUGCAUCCCACCACAUGAUGAUGCCUGAAGAGCCUUGGUUUUUUG

Variants of: B1
Test: polymerase ribozyme fitness, log enrichment relative to wild type (log ratio); higher = more active; in vitro selection for triplet polymerase activity
In short: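 To select mutant libraries of each subunit of a heterodimeric triplet polymerase ribozyme, built by PCR and transcribed, each was annealed with a biotinylated primer, partner subunit and triplets, then incubated frozen at −7 °C. Extended constructs were gel-excised, captured on streptavidin beads and amplified by RT-PCR, in one round carried out in triplicate. Illumina sequencing of input and output libraries kept genotypes with ≥10 input reads and ≥1 read per output. Fitness is the base-2 logarithm of genotype enrichment relative to wild-type enrichment, from inverse-variance-weighted replicate averages.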

C88U U92A and C89G C94A are within 0.2 log units of each other in “polymerase ribozyme fitness (log ratio)” value: -2.45 for the first, -2.52 for the second.

C89G C94U and C88U U129A are within 0.2 log units of each other in “polymerase ribozyme fitness (log ratio)” value: -0.951 for the first, -0.777 for the second.

Going from C88A C101G U116C to U87A A108C G110A, the “polymerase ribozyme fitness (log ratio)” value falls from -2.59 to -6.14.

First: C88G C114U
Second: U87C U106A G128C
The “polymerase ribozyme fitness (log ratio)” value of the first is lower: -1.84 for the first, -1.61 for the second.

First: C88A C104U G127A
Second: U87A C89A A91C A95G G113C
The “polymerase ribozyme fitness (log ratio)” value of the first is higher: -1.76 for the first, -2.9 for the second.

Going from U87G U96A C102A to U87A C94A, the “polymerase ribozyme fitness (log ratio)” value rises from -2.66 to -0.438.

Going from C88A G113A C124A G135U to U87C U116A A121G, the “polymerase ribozyme fitness (log ratio)” value rises from -1.79 to 1.1.

Going from C88A C123G to U87G A111C, the “polymerase ribozyme fitness (log ratio)” value falls from 1.69 to 1.16.

Compared with C88G G110U, C88U A100G A108G U133G is lower in “polymerase ribozyme fitness (log ratio)” value: -2.67 for the first, -5.29 for the second.

Compared with U87C U109C U130C, U87A U92A is higher in “polymerase ribozyme fitness (log ratio)” value: -5.36 for the first, -2.55 for the second.

Compared with C88A C114U, C88U C97A is lower in “polymerase ribozyme fitness (log ratio)” value: -2.51 for the first, -4.84 for the second.

First: C89A G135U
Second: C88A U96C G110C U132C
The “polymerase ribozyme fitness (log ratio)” value of the first is higher: -2.26 for the first, -4.37 for the second.

Going from C89A G127C U133G to C89G C101A, the “polymerase ribozyme fitness (log ratio)” value rises from -4.42 to -2.55.

Compared with C88G A95C, U87G U126G is higher in “polymerase ribozyme fitness (log ratio)” value: -4.58 for the first, -1.84 for the second.

First: C89G C124U
Second: C88U C94U U129G
The “polymerase ribozyme fitness (log ratio)” value of the first is higher: 0.383 for the first, -1.48 for the second.

Going from C88G U116G to C88A C98A, the “polymerase ribozyme fitness (log ratio)” value falls from -3.52 to -4.39.

Compared with C88U A118G, C88G A91C is lower in “polymerase ribozyme fitness (log ratio)” value: 0.0785 for the first, -2.11 for the second.

C88U C102U and C89U C101U are within 0.2 log units of each other in “polymerase ribozyme fitness (log ratio)” value: -1.5 for the first, -1.33 for the second.

Compared with C89U A90C, C88A U116A is lower in “polymerase ribozyme fitness (log ratio)” value: -0.815 for the first, -3.6 for the second.

Compared with C88A U116G, U87A A108G C114A U116A is lower in “polymerase ribozyme fitness (log ratio)” value: -2.94 for the first, -7.38 for the second.

Going from C89A A100U to C89A G122A U125G, the “polymerase ribozyme fitness (log ratio)” value falls from -2.67 to -4.57.

First: C89A C94U U116A
Second: U87A C97U
The “polymerase ribozyme fitness (log ratio)” value of the first is lower: -5.8 for the first, -0.196 for the second.

Compared with U87A G93C, U87G U96G C99U is lower in “polymerase ribozyme fitness (log ratio)” value: -1.3 for the first, -2.81 for the second.

Going from C89G C115G G128A to C89U A121U, the “polymerase ribozyme fitness (log ratio)” value rises from -6.15 to 2.14.

First: C89U A119U
Second: U87C C104U
The “polymerase ribozyme fitness (log ratio)” value of the first is lower: -2.2 for the first, 0.232 for the second.

Going from U87G A91U to C89A U125A, the “polymerase ribozyme fitness (log ratio)” value rises from -1.46 to -1.17.

Compared with C88A G122A, C88A U129G is lower in “polymerase ribozyme fitness (log ratio)” value: -1.31 for the first, -1.51 for the second.

Going from C88A U129A to C89G C115A G120C, the “polymerase ribozyme fitness (log ratio)” value rises from -2.21 to -1.16.

C89G C98U and C88A G113A are within 0.2 log units of each other in “polymerase ribozyme fitness (log ratio)” value: -1.55 for the first, -1.6 for the second.

Going from U87A C88G to C88A G107U, the “polymerase ribozyme fitness (log ratio)” value falls from -1.1 to -4.63.

Going from U87C C102U U112A G122A to C88G U125G, the “polymerase ribozyme fitness (log ratio)” value falls from -0.872 to -1.44.

Going from C89G C102A C114A to U87A C97U C98U G120A, the “polymerase ribozyme fitness (log ratio)” value rises from -5.12 to -2.92.

Going from C89A C123U U129A to C88U C98G C114G, the “polymerase ribozyme fitness (log ratio)” value falls from -1.73 to -6.17.

Compared with U87C C114U, C89A G110U U132C is lower in “polymerase ribozyme fitness (log ratio)” value: -1.5 for the first, -4.16 for the second.

Compared with C88U C101U U106G C123A, C89A C104A is lower in “polymerase ribozyme fitness (log ratio)” value: -1.23 for the first, -4.02 for the second.

Compared with C88A U106A G128U, C88A C98A C124G is lower in “polymerase ribozyme fitness (log ratio)” value: -3.15 for the first, -3.46 for the second.

U87A C102A and U87A U106G U125G are within 0.2 log units of each other in “polymerase ribozyme fitness (log ratio)” value: -2.11 for the first, -2.01 for the second.

Compared with C89A U129C, C88A U125G is higher in “polymerase ribozyme fitness (log ratio)” value: -2.03 for the first, -1.18 for the second.

Compared with C89G C104U, C88G G117A G120C is lower in “polymerase ribozyme fitness (log ratio)” value: -0.672 for the first, -4.17 for the second.

Compared with U87G C104U G117A, C88A C101G A119U is lower in “polymerase ribozyme fitness (log ratio)” value: -3.2 for the first, -3.66 for the second.

Going from C88A A111C to C89A C124G, the “polymerase ribozyme fitness (log ratio)” value falls from 0.245 to -0.00331.

Compared with U87A G113C U130A, C88G C115G is lower in “polymerase ribozyme fitness (log ratio)” value: -2.96 for the first, -3.51 for the second.

Compared with U87A A105G, C88A U109C is lower in “polymerase ribozyme fitness (log ratio)” value: -2 for the first, -5.25 for the second.

Going from C88A U109A to C88G A111C, the “polymerase ribozyme fitness (log ratio)” value rises from -5.8 to 0.0984.

Going from C89G C123U to C89A U92G U116G, the “polymerase ribozyme fitness (log ratio)” value falls from -0.521 to -5.83.

Going from U87A G117C to C88U C99U, the “polymerase ribozyme fitness (log ratio)” value rises from -3.81 to -2.42.

Going from C89G G113A G127U to C89A U106A G113C C123G, the “polymerase ribozyme fitness (log ratio)” value rises from -4.45 to -1.57.

Compared with U87C G113A, C89A C101A is lower in “polymerase ribozyme fitness (log ratio)” value: -0.807 for the first, -2.25 for the second.

Going from C88U U106A U130A to C88A U130A, the “polymerase ribozyme fitness (log ratio)” value falls from -0.0999 to -2.14.

Going from C88A U130G to C89A G113U, the “polymerase ribozyme fitness (log ratio)” value falls from -1.33 to -3.35.

First: C88A A121U
Second: C88A A100U C115U
The “polymerase ribozyme fitness (log ratio)” value of the first is higher: 0.835 for the first, -3.24 for the second.

First: C89A G117A A121U
Second: C89G U126G
The “polymerase ribozyme fitness (log ratio)” value of the first is higher: -0.932 for the first, -3.19 for the second.

Going from C88G U112A to U87C A90G U96A, the “polymerase ribozyme fitness (log ratio)” value falls from 1.18 to 0.000334.

First: C89A C102G
Second: C89A C114A
The “polymerase ribozyme fitness (log ratio)” value of the first is lower: -6.86 for the first, -2.6 for the second.

Compared with C88G G113A, C88G G113C is lower in “polymerase ribozyme fitness (log ratio)” value: -1.99 for the first, -2.74 for the second.

Going from C89G C97G to U87C C89A G113A, the “polymerase ribozyme fitness (log ratio)” value rises from -6.08 to -2.28.

Going from U87C U129C to C88U C89G U92G, the “polymerase ribozyme fitness (log ratio)” value falls from -0.143 to -2.44.

Compared with C89G G113C, U87A C104G A111U is lower in “polymerase ribozyme fitness (log ratio)” value: -3.04 for the first, -3.77 for the second.

First: C88G U96G
Second: C89A
The “polymerase ribozyme fitness (log ratio)” value of the first is higher: -0.738 for the first, -1.27 for the second.

Compared with C89U, C89G is lower in “polymerase ribozyme fitness (log ratio)” value: -0.195 for the first, -1.19 for the second.

Going from U87G C102U to C88U G110A, the “polymerase ribozyme fitness (log ratio)” value falls from -0.897 to -1.46.

U87G G110U and U87G G110A are within 0.2 log units of each other in “polymerase ribozyme fitness (log ratio)” value: -0.69 for the first, -0.698 for the second.

Going from U87A U130A to U87C G113A U133A, the “polymerase ribozyme fitness (log ratio)” value falls from -0.662 to -0.981.

Compared with C89A U112A A121U U131C, C88G G127C is lower in “polymerase ribozyme fitness (log ratio)” value: 0.436 for the first, -2.07 for the second.

Compared with C89A G110C, C89G G93C is higher in “polymerase ribozyme fitness (log ratio)” value: -5.43 for the first, -3.36 for the second.

Compared with U87G U106A A108C, C89G A105G is lower in “polymerase ribozyme fitness (log ratio)” value: -2.16 for the first, -3.85 for the second.

Going from U87G C99U to C88G G113U U125C U132A, the “polymerase ribozyme fitness (log ratio)” value falls from -3.22 to -3.76.

Compared with U87A G117U U129G, U87A G127U is higher in “polymerase ribozyme fitness (log ratio)” value: -5.03 for the first, -0.745 for the second.

Compared with C89G G120A, C88U A91U C115G is lower in “polymerase ribozyme fitness (log ratio)” value: -1.58 for the first, -3.9 for the second.

First: C89G G122A
Second: C88U G107A
The “polymerase ribozyme fitness (log ratio)” value of the first is higher: -3.38 for the first, -6.88 for the second.

First: C89A U96A C115A
Second: C88U C114U
The “polymerase ribozyme fitness (log ratio)” value of the first is lower: -2.16 for the first, -1.17 for the second.

Compared with C88U C114G, C89U A90G U112A C123G is higher in “polymerase ribozyme fitness (log ratio)” value: -3.05 for the first, 1.96 for the second.

Compared with C88G U129A, C89U A95U C115U is higher in “polymerase ribozyme fitness (log ratio)” value: -3.06 for the first, -2.59 for the second.

Compared with U87C, U87G is lower in “polymerase ribozyme fitness (log ratio)” value: 0.386 for the first, 0.133 for the second.

First: C88A G93U G120U
Second: C88G U92A
The “polymerase ribozyme fitness (log ratio)” value of the first is higher: -3.17 for the first, -4.09 for the second.

Compared with U87G C115U, C88U C97A U109G is lower in “polymerase ribozyme fitness (log ratio)” value: -0.742 for the first, -6.35 for the second.

Going from C88U C89A to U87A C124A, the “polymerase ribozyme fitness (log ratio)” value rises from -1.24 to 1.83.

Compared with C88U U116A, C88U U116C is higher in “polymerase ribozyme fitness (log ratio)” value: -3.45 for the first, 0.189 for the second.

First: C88A C115G G120C C123A
Second: C89G C97A A100U C114A
The “polymerase ribozyme fitness (log ratio)” value of the first is higher: 0.0548 for the first, -7.31 for the second.

Going from U87A G128U to C88U A90G C99U, the “polymerase ribozyme fitness (log ratio)” value falls from -2.2 to -2.84.

Compared with C88A U112A, U87A U92G G93U C104A A111G C114U U130C is lower in “polymerase ribozyme fitness (log ratio)” value: -0.232 for the first, -7.15 for the second.

Compared with C89U C104U, C89A A95C is lower in “polymerase ribozyme fitness (log ratio)” value: 0.00386 for the first, -3.6 for the second.

Going from C88G A91U U112A to C89A C123A, the “polymerase ribozyme fitness (log ratio)” value falls from -1.38 to -1.82.

With U87A A111U the “polymerase ribozyme fitness (log ratio)” value was -2.69.
